We go through one substance from PMC8410055.

In the experiment the target is SARS-CoV-2 spike protein expressed on transfected HEK293T cells (UniProt P0DTC2). In words: flow cytometry on cells.

Regarding “L-SIGN/Fc: extracellular domain of L-SIGN (amino acids 78–399) fused to the human IgG2 Fc domain (from UniProt Q9H2X3) EPN>QPD”, the response (% Fc binding (positive population)) turned out to be 1.58.
